Source: patent US20210040232A1 (Regeneron, published 2021)
Each block holds one binder with its values, some of them ahead of it.

Experiments:
[1] = target: T1, soluble human CTLA-4 expressed with a C-terminal myc-myc-polyhistidine tag (human); assay: SPR, mAb capture, 25 C
T1 construct: soluble protein; also called hCTLA-4.mmh; hCTLA4.mmh

[2] = target: T2, recombinant hCTLA-4-mFc (human CTLA-4 extracellular domain with a C-terminal Fc portion of mouse IgG2a) (human); assay: competition ELISA, 400 pM hCTLA-4-mFc on plate-coated hB7-2-hIgG1-6His
T2 construct: also called dimeric CTLA-4 protein
T2 sequence (chain, as listed by the source limits assumed): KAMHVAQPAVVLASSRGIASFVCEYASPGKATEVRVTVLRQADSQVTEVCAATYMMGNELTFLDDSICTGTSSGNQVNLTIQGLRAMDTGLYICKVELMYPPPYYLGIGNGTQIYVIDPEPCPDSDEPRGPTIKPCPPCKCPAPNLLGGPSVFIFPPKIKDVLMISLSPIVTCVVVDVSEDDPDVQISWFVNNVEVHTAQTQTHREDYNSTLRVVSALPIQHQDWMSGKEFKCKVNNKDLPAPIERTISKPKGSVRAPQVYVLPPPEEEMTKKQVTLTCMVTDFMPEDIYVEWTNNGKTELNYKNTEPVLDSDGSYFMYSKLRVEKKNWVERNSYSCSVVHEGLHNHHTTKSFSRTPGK

[3] = target: T2, recombinant hCTLA-4-mFc (human CTLA-4 …); assay: competition ELISA, 200 pM hCTLA-4-mFc on plate-coated hB7-1-hIgG1-6His
[4] = target: T3, human CTLA-4 (amino acids M1-N223) on stably transfected VI-fibroblast cells (human, UniProt P16410 36-223); assay: ECL cell binding, VI-fibroblast/hCTLA-4 cells;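 also: antibodies bound to the cells on carbon electrode plates, detected via SULFO-TAG anti-IgG secondary (1 h, RT), electrochemiluminescence read as RLU over a concentration range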
T3 construct: also called VI-fibroblast/hCTLA-4
T3 sequence (P16410 36-223 limits assumed): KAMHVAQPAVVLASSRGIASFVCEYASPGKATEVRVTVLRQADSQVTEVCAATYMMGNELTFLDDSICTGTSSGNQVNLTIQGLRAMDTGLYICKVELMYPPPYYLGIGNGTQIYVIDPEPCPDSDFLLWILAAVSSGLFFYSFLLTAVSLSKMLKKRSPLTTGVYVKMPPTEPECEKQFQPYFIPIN

EC50 [4]: 0.19 nM | ratio of RLU signal to parental VI-fibroblast at 0.6 nM Ab [4]: 18 ratio
B2: H2M20375N (antibody, mouse IgG2, V domains shown)
VH: QLQLQESGPGLVKPSETLSFTCTVSGGSISSNYYYWGWVRQSPGKGLEWIGSIYHTGNAYDNPSLKSRVTISVDTSKNQFSLNLNSVTAADTAIYYCARHHSSSSWWYFDVWGRGTLVIVSS
VL: EIVLTQSPDTLSLSPGERATLSCRASQTVSNSHLAWYQQKPGQAPRLLIYGTSSRATGIPDRFSGSGSGTDFSLTIIRLEPDDFAVYFCQQHESSPPTFGQGAKLEIK
notes: hybridoma antibody, human variable domains, mouse IgG2 Fc (H2M)

EC50 [4]: 0.22 nM | ratio of RLU signal to parental VI-fibroblast at 0.6 nM Ab [4]: 23 ratio
B4: H1M20370N (antibody, mouse IgG1, V domains shown)
VH: QVQLHESGPGLVKPSQTLSLTCSVSGGSISNGGYYWSWIRQHPGQGLEWIGYIYYIGNTYYNPSLESRVTMSIDTSKNQFSLKLSSVTAADTAIYYCARQEFVPGAEYFLHWGQGILVTVSS
VL: DIRMTQSPSSLSASVGDRVTITCRASQTVNTFLNWYQQKPGKAPKLLIFGASSLQSGVPSRFSGSGSGTDFTLTISGLQPEDFAIYYCQQSYSVPPITFGQGTRLEIE
notes: hybridoma antibody, human variable domains, mouse IgG1 Fc (H1M)

EC50 [4]: 5.5 nM | ratio of RLU signal to parental VI-fibroblast at 0.6 nM Ab [4]: 8 ratio
B9: H2M20385N (antibody, mouse IgG2, V domains shown)
VH: QVQLVQSGAEVKKPGASVKVSCKTSGYTFTNNGISWVRQVPGQGLEWMGWISPYNGNTKYAQKFQGRVTMTTDTSTTTVYMDVRSLRSDDTAVYFCARDGPITISYFGMDVWGQGTTVTVSS
VL: DIQMTQSPSSLSASVGDRVTITCRASQSISTYLNWYQQKPGKAPKLLIYAASTLQSGVPSRFGGSGSGTDFTLTVSSLQPEDFATYYCQQSYSTPPITFGQGTRLEIN
notes: as for B2

EC50 [4]: 7.3 nM | ratio of RLU signal to parental VI-fibroblast at 0.6 nM Ab [4]: 12 ratio
B10: H1M20393N (antibody, V domains shown)
VH: DRQMVESGGGVVQPGRSLRLSCIASGFIISRYGMHWVRQAPGKGLEWVAVIWYDGRNKNYADSVKGRFTISRDNSKNTLYLEMNSLRAEDTAVYYCGRVHQFGAFDIWGQGTMVTVSS
VL: not shown
notes: as for B4

EC50 [4]: 0.062 nM | ratio of RLU signal to parental VI-fibroblast at 0.6 nM Ab [4]: 22 ratio
B13: H2M20373N (antibody, mouse IgG2, V domains shown)
VH: EVQLLESGGGLVQPGGSLRLSCAASGFTFSSYAMSWVRQAPGKGLEWVSDISGSGLSTYYADSVKGRFAISRDNSKNMLYLQMNRLRAEDTAVYYCAKEPSHWNGEAFDIWGQGTMVTVSS
VL: DIQMTQSPSSVSASVGDRVTITCRASQDISSWLAWYQQKPGKAPKLLIYTTANLQSGVPSRFSGSGSGTDFTLTISSLQSEDFATYYCQQANSFPFTFGSGTKVDIK
notes: as for B2

Kd [1]: 4.55 nM | koff [1]: 0.000367 s⁻¹ | kon [1]: 80500 M⁻¹ s⁻¹ | t1/2 [1]: 31.5 min | % Blockade [2]: 98% | IC50 [2]: 0.99 nM | % Blockade [3]: 98% | IC50 [3]: 2.5 nM
B14: H1H20372N (antibody, human IgG1, V domains shown)
VH: EVQLVESGGGLVQPGRSLRLSCAGTGFIFDDYAMHWVRQAPGKGLEWVSGISWNSNSLGYADSVKGRFTISRDNAKKSLYLQMSSLRAEDTALYYCVKDVTRLELRGFLDYWGQGTQVTVSS
VL: DIQMTQSPSSLSASVGDRVTITCRASQDIRNDLGWHQQKSGKAPKSLIYAASSLQSGAPSRFSGSGSGTEFTLTISSLQPEDSATYYCLQQNSYPPTFGQGTKVEIK
notes: here with human IgG1 Fc (H1H)

EC50 [4]: 0.88 nM | ratio of RLU signal to parental VI-fibroblast at 0.6 nM Ab [4]: 14 ratio
B15: H1M20372N (antibody, mouse IgG1, V domains shown)
VH: EVQLVESGGGLVQPGRSLRLSCAGTGFIFDDYAMHWVRQAPGKGLEWVSGISWNSNSLGYADSVKGRFTISRDNAKKSLYLQMSSLRAEDTALYYCVKDVTRLELRGFLDYWGQGTQVTVSS
VL: DIQMTQSPSSLSASVGDRVTITCRASQDIRNDLGWHQQKSGKAPKSLIYAASSLQSGAPSRFSGSGSGTEFTLTISSLQPEDSATYYCLQQNSYPPTFGQGTKVEIK
notes: as for B4

EC50 [4]: 0.26 nM | ratio of RLU signal to parental VI-fibroblast at 0.6 nM Ab [4]: 25 ratio
B18: H2M20368N (antibody, mouse IgG2, V domains shown)
VH: QVQLQESGPGLVRPSQTLSLTCTVSGGSISNGGYYWTWIRQNPGKGLEWIGYIYYIGTTYYNPSLESRLSLSVDTSKNQFSLKLTSVTAADTAVYYCARSSLAVSEAFDIWGQGTMVTVSS
VL: DIQMTQSPSSLSASVGDRFTITCRASQSIGSFLSWYQQKPGKAPKLLIYAASSLQSGVPSRFSGSGSGTDFTLTISSLQPEDFATYYCQQSYNTPPITFGQGTRLEIK
notes: as for B2

The next lines start with the binder.

B1: H1H20375N (antibody, human IgG1, V domains shown)
VH: QLQLQESGPGLVKPSETLSFTCTVSGGSISSNYYYWGWVRQSPGKGLEWIGSIYHTGNAYDNPSLKSRVTISVDTSKNQFSLNLNSVTAADTAIYYCARHHSSSSWWYFDVWGRGTLVIVSS
VL: EIVLTQSPDTLSLSPGERATLSCRASQTVSNSHLAWYQQKPGQAPRLLIYGTSSRATGIPDRFSGSGSGTDFSLTIIRLEPDDFAVYFCQQHESSPPTFGQGAKLEIK
notes: here with human IgG1 Fc (H1H)
Kd [1]: 66.5 nM | koff [1]: 0.00279 s⁻¹ | kon [1]: 41900 M⁻¹ s⁻¹ | t1/2 [1]: 4.1 min | % Blockade [2]: 29% | % Blockade [3]: 13%

B3: H1H20370N (antibody, human IgG1, V domains shown)
VH: QVQLHESGPGLVKPSQTLSLTCSVSGGSISNGGYYWSWIRQHPGQGLEWIGYIYYIGNTYYNPSLESRVTMSIDTSKNQFSLKLSSVTAADTAIYYCARQEFVPGAEYFLHWGQGILVTVSS
VL: DIRMTQSPSSLSASVGDRVTITCRASQTVNTFLNWYQQKPGKAPKLLIFGASSLQSGVPSRFSGSGSGTDFTLTISGLQPEDFAIYYCQQSYSVPPITFGQGTRLEIE
notes: here with human IgG1 Fc (H1H)
Kd [1]: 3.43 nM | koff [1]: 0.000588 s⁻¹ | kon [1]: 172000 M⁻¹ s⁻¹ | t1/2 [1]: 19.6 min | % Blockade [2]: 96% | IC50 [2]: 0.99 nM | % Blockade [3]: 95% | IC50 [3]: 0.86 nM

B5: H2M20379N (antibody, mouse IgG2, V domains shown)
VH: QVQLVESGGGVVQPGRSLRLSCAASGITFSSYGMHWVRQAPGKGLEWVALTSYDGSKKYYSDSVKGRFTISRDNSKNTLYLQMNSLRPEDTAVYYCAKDKGGDDYYGMDVWGQGTTVTVSS
VL: EIVLTQSPGTLSLSPGERATLSCRASQWISSSYLAWYQQKPGQAPRLLIYGAFSRAPGIPGRFSGSGSGTDFTLTISRLEPEDFAVYYCQQYGSSPYTFGQGTKLEIN
notes: as for B2
EC50 [4]: 0.092 nM | ratio of RLU signal to parental VI-fibroblast at 0.6 nM Ab [4]: 28 ratio

B6: H1H20386N (antibody, human IgG1, V domains shown)
VH: QVQLVESGGGVVQPGRSLRLSCAASGFTVNRYGIHWVRQAPGKGLEWVAVTWYDGRNKYFADSVKGRFSFSRDSSTNTLYLQMNSLRAEDTAVYYCARGGLFGYFDYWGQGTLVTVSS
VL: EIVLTQSPDTLSLSPGERATLSCRASQSVAGSYLAWYQQKPGQAPRLLIYGASSRATGIPDRFSGSGSGTDFTLTISRLEPEDFAVYYCQQYGTSPWTFGQGTKVEIT
notes: here with human IgG1 Fc (H1H)
Kd [1]: 10.5 nM | koff [1]: 0.00194 s⁻¹ | kon [1]: 185000 M⁻¹ s⁻¹ | t1/2 [1]: 6 min | % Blockade [2]: 96% | IC50 [2]: 7.7 nM | % Blockade [3]: 94% | IC50 [3]: 18 nM

B7: H2M20386N (antibody, mouse IgG2, V domains shown)
VH: QVQLVESGGGVVQPGRSLRLSCAASGFTVNRYGIHWVRQAPGKGLEWVAVTWYDGRNKYFADSVKGRFSFSRDSSTNTLYLQMNSLRAEDTAVYYCARGGLFGYFDYWGQGTLVTVSS
VL: EIVLTQSPDTLSLSPGERATLSCRASQSVAGSYLAWYQQKPGQAPRLLIYGASSRATGIPDRFSGSGSGTDFTLTISRLEPEDFAVYYCQQYGTSPWTFGQGTKVEIT
notes: as for B2
ratio of RLU signal to parental VI-fibroblast at 0.6 nM Ab [4]: 3 ratio

B8: H2M20369N (antibody, mouse IgG2, V domains shown)
VH: QVQLVQSGTEVKRPGASVKVSCKASGFTFTGYYIYWVRQAPGEGLEWMGWINPHSGGTKYAQKFQGRVTLTRDTSINTAYLDLISLRSDDTAVYYCARIGGGGYSSYFDYWGQGTLVTVSS
VL: DIQLTQSPSSLSASVGDRVTITCRASQTISTYLNWYQQKPGNAPKLLIYAASSLQSGVPSRFSGRGSGTDFTLTISSLQPEDFATYYCQQGYTTPPITFGQGTRLEIK
notes: as for B2
EC50 [4]: 0.9 nM | ratio of RLU signal to parental VI-fibroblast at 0.6 nM Ab [4]: 18 ratio

B11: H2M20387N (antibody, mouse IgG2, V domains shown)
VH: QVQLVESGGGVVQPGRSLRLSCAASGFTFSSYGIHWVRQAPGKGLEWVAVIWYGGNNKYYADSVKGRFTISRDNSKNTLYLQMNSLRAEDTALYHCARSGNFGAFDIWGQGTMVTVSS
VL: EIVLTQSPGTLSLSPGERATLSCRASQSVSSYLAWYQQKPGQAPRLLIYGASSRATGIPDRFSGSGSGTDFILTINRLEPEDFAVYYCQHYGNSPWTFGQGTKVEIK
notes: as for B2
ratio of RLU signal to parental VI-fibroblast at 0.6 nM Ab [4]: 3 ratio

B12: H1H20373N (antibody, human IgG1, V domains shown)
VH: EVQLLESGGGLVQPGGSLRLSCAASGFTFSSYAMSWVRQAPGKGLEWVSDISGSGLSTYYADSVKGRFAISRDNSKNMLYLQMNRLRAEDTAVYYCAKEPSHWNGEAFDIWGQGTMVTVSS
VL: DIQMTQSPSSVSASVGDRVTITCRASQDISSWLAWYQQKPGKAPKLLIYTTANLQSGVPSRFSGSGSGTDFTLTISSLQSEDFATYYCQQANSFPFTFGSGTKVDIK
notes: here with human IgG1 Fc (H1H)
Kd [1]: 0.766 nM | koff [1]: 0.000401 s⁻¹ | kon [1]: 523000 M⁻¹ s⁻¹ | t1/2 [1]: 28.8 min | % Blockade [2]: 91% | IC50 [2]: 34 nM | % Blockade [3]: 22%

B16: H1H20361N (antibody, human IgG1, V domains shown)
VH: QVQLQESGPGLVKPSQTLSLTCTVSGGSINNGGHYWTWIRQHPGKGLEWIGYIYYIGTTYYNPSLESRLSLSVDTSKNQFSLKLSSVTAADTAIYYCARSSLSVSEAFDVWGQGTMVTVSS
VL: DIQMTQSPSSLSASVGDRITITCRGSQNIGSFLSWYQQRPGKAPKLLIFGAYNLQGGVPSRFSGSGSGTDFTLTISSLQPEDFATYFCQQSYSTPPITFGQGTRLEIK
notes: here with human IgG1 Fc (H1H)
Kd [1]: 32.1 nM | koff [1]: 0.00199 s⁻¹ | kon [1]: 62100 M⁻¹ s⁻¹ | t1/2 [1]: 5.8 min | % Blockade [2]: 82% | IC50 [2]: 65 nM | % Blockade [3]: 73% | IC50 [3]: 69 nM

B17: H2M20361N (antibody, mouse IgG2, V domains shown)
VH: QVQLQESGPGLVKPSQTLSLTCTVSGGSINNGGHYWTWIRQHPGKGLEWIGYIYYIGTTYYNPSLESRLSLSVDTSKNQFSLKLSSVTAADTAIYYCARSSLSVSEAFDVWGQGTMVTVSS
VL: DIQMTQSPSSLSASVGDRITITCRGSQNIGSFLSWYQQRPGKAPKLLIFGAYNLQGGVPSRFSGSGSGTDFTLTISSLQPEDFATYFCQQSYSTPPITFGQGTRLEIK
notes: as for B2
EC50 [4]: 0.32 nM | ratio of RLU signal to parental VI-fibroblast at 0.6 nM Ab [4]: 19 ratio
